Test results reported in patent US20220364142.

T1: Consensus peptide P4'A (EVKALEEA) (not fully specified)
T1 chain: EVKALEEA

T2: Consensus peptide P4'P (EVKALEEP) (not fully specified)
T2 chain: EVKALEEP

T3: DABCYL-TPLKSPPPSPR-EDANS (Calpain Substrate III; Calbiochem)
T3 chain: TPLKSPPPSPR

T4: Consensus peptide P2R (EVRALEEA) (not fully specified)
T4 chain: EVRALEEA

T5: Consensus peptide P3GP1'V (EGKAVLEA) (not fully specified)
T5 chain: EGKAVLEA

T6: PR1478 peptide
T6 chain: WRQNRGGGCINH

T7: PR1476 peptide
T7 chain: RQNRGGGCINH


Assays:
[1] = target: T1, Consensus peptide P4'A (EVKALEEA)
[2] = target: T2, Consensus peptide P4'P (EVKALEEP)
[3] = target: T3, DABCYL-TPLKSPPPSPR-EDANS (Calpain …)
[4] = target: T4, Consensus peptide P2R (EVRALEEA)
[5] = target: T5, Consensus peptide P3GP1'V (EGKAVLEA)
PR1478 peptide = target: T6, PR1478 peptide
PR1476 peptide = target: T7, PR1476 peptide

| Protein | hydrolysis of consensus FRET peptide [1] | hydrolysis of consensus FRET peptide [2] | hydrolysis of FRET substrate (EDANS signal) [3] | catalytic efficiency (kcat/Km) [4] [vs. 7 M^-1s^-1] | hydrolysis of consensus FRET peptide [4] | substrate turnover (kcat) [4] | hydrolysis of consensus FRET peptide [5] | proteolytic cleavage of FRET peptide substrate (EDANS fluorescence) (PR1478 peptide) | substrate quality compared with PR1476 (PR1478 peptide) | catalytic efficiency (kcat/Km) (PR1476 peptide) [vs. 7 M^-1s^-1] | proteolytic cleavage of FRET peptide substrate (EDANS fluorescence) (PR1476 peptide) |
| --- | --- | --- | --- | --- | --- | --- | --- | --- | --- | --- | --- |
| CAPN5-G267S protease core domain (protein) MFSCVKPYEDQNYSALRRDCRRRKVLFEDPLFPATDDSLYYKGTPGPAVRWKRPKGICEDPRLFVDGISSHDLHQGQVGNCWFVAACSSLASRESLWQKVIPDWKEQEWDPEKPNAYAGIFHFHFWRFGEWVDVVIDDRLPTVNNQLIYCHSNSRNEFWCALVEKAYAKLAGCYQALDGGNTADALVDFTGGVSEPIDLTEGDFANDETKRNQLFERMLKVHSRGGLISASIKAVTAADMEARLACGLVKGHAYAVTDVRKVRLGHSLLAFFKSEKLDMIRLRNPWGEREWNGPWSDTSEEWQKVSKSEREKMGVTVQDDGEFWMTFEDVCRYFTDIIKCRVI | These substrates were hydrolyzed by 1.6 µM CAPN5-PC p.G267S in the presence of 10 mM Ca^2+ | These substrates were hydrolyzed by 1.6 µM CAPN5-PC p.G267S in the presence of 10 mM Ca^2+ | DABCYL-TPLKSPPPSPR (SEQ ID NO:3)-EDANS (Calpain Substrate III; Calbiochem; 40 µM) hydrolysis by 50 nM CAPN5-G267S protease core domain | 11 | These substrates were hydrolyzed by 1.6 µM CAPN5-PC p.G267S in the presence of 10 mM Ca^2+ | The observed substrate turnover (kcat) of these consensus peptides indicated that peptide P2R is preferred by CAPN5-PC and suggests a preference for arginine in the P2 subsite | These substrates were hydrolyzed by 1.6 µM CAPN5-PC p.G267S in the presence of 10 mM Ca^2+ |  |  |  |  |
| Calpain-5 protease core domain (CAPN5-PC) (protein) MFSCVKPYEDQNYSALRRDCRRRKVLFEDPLFPATDDSLYYKGTPGPAVRWKRPKGICEDPRLFVDGISSHDLHQGQVGNCWFVAACSSLASRESLWQKVIPDWKEQEWDPEKPNAYAGIFHFHFWRFGEWVDVVIDDRLPTVNNQLIYCHSNSRNEFWCALVEKAYAKLAGCYQALDGGNTADALVDFTGGVSEPIDLTEGDFANDETKRNQLFERMLKVHSRGGLISASIKAVTAADMEARLACGLVKGHAYAVTDVRKVRLGHGLLAFFKSEKLDMIRLRNPWGEREWNGPWSDTSEEWQKVSKSEREKMGVTVQDDGEFWMTFEDVCRYFTDIIKCRVI |  |  |  |  |  |  |  | PR1478 also displays activity in a CAPN5 dose-dependent manner | a tryptophan was added to the N-terminus of PR1476, which makes PR1478 a better substrate for CAPN5 | 11 | PR1476 displays activity in a CAPN5 dose-dependent manner |
